From US20180258187A1 (Memorial Sloan Kettering, published 2018) come the findings set out here.

This assay addresses EBV-LMP2 peptide presented by HLA-A*02:02 on artificial antigen presenting cells (human; Epstein-Barr virus). As to the kind of experiment: cell-based or functional assay.

B1: LMP2-38×CD3 bispecific antibody (bispecific antibody)
chain: QSALTQPASVSGSPGQSITISCTGTSSDVGSYNDVSWYQQHPGKAPKLMIYDVSNRPSGVSNRFSGSKSGNTASLTISGLQTEDEADYYCNSYTSSNTYVFGTGTKVTVLGQVQLVQSGAEVKKPGASVQVSCRASGYTITSYYMHWVRQAPGQGLEWMGVINPNAGSTRYAQKFQGRVTMSTDTSTSTVYMALSSLRSDDTAVYYCARGMYRMYDWGQGTLVTVSSDVQLVQSGAEVKKPGASVKVSCKASGYTFTRYTMHWVRQAPGQGLEWIGYINPSRGYTNYADSVKGRFTITTDKSTSTAYMELSSLRSEDTATYYCARYYDDHYCLDYWGQGTTVTVSSGEGTSTGSGGSGGSGGADDIVLTQSPATLSLSPGERATLSCRASQSVSYMNWYQQKPGKAPKRWIYDTSKVASGVPARFSGSGSGTDYSLTINSLEAEDAATYYCQQWSSNPLTFGGGTKVEIKHHHHHH
As to B1, the “EC50 (read off the curve), T cell cytotoxicity on peptide-pulsed aAPC expressing HLA-A*02:02” value is approximately 0.02 µg/mL.
